Measurements reported in patent publication US20020042382A1 (UNITED STATES OF AMERICA AS REPRESENTED BY THE SECRETARY OF …, published 2002).

B1: trpE fusion protein representing Sequestrin amino acids H42-A458 (other)
chain: HILDESKLETFYRDELDKMGKEEIETYFKGNIDKKSLDEFHKILLEELNKMDKDELYEMYREELNRIEQQKIRNMNKQQINKTYKDEINNMNSDQVDKIHREELEKIEKEKINKMDKDEIDKIYREELDKMDRDAIYSMYIEDISNKNIKDLIKNEKETNKDKNKKKDIDINKKKKKDIDIDVDIDKDIHKDHVEELYGEVKNKLSDEELDRMDRDALYRVYLEELDRMNRDELYRVYLEELEKIDKEEKEKIHREKLHKIEKEKINKMDKDQIDKIYEEELNKMDSDEIQHVRRAILEDIQKEKIQNLELEEIDRLYKEELDRMDREARYEIPMRNLSRNEKDNIIHRNIKNESNQKNKKENVNVFIIHDNNDSNNNNNNNNRDVNNLNNKHTNNNYNENVEVELVVRNLDKDKGA
notes: Tested in a bacterial extract, blotted
B2: CD36 (purified) (receptor)
chain: GCDRNCGLIAGAVIGAVLAVFGGILMPVGDLLIQKTIKKQVVLEEGTIAFKNWVKTGTEVYRQFWIFDVQNPQEVMMNSSNIQVKQRGPYTYRVRFLAKENVTQDAEDNTVSFLQPNGAIFEPSLSVGTEADNFTVLNLAVAAASHIYQNQFVQMILNSLINKSKSSMFQVRTLRELLWGYRDPFLSLVPYPVTTTVGLFYPYNNTADGVYKVFNGKDNISKVAIIDTYKGKRNLSYWESHCDMINGTDAASFPPFVEKSQVLQFFSSDICRSIYAVFESDVNLKGIPVYRFVLPSKAFASPVENPDNYCFCTEKIISKNCTSYGVLDISKCKEGRPVYISLPHFLYASPDVSEPIDGLNPNEEEHRTYLDIEPITGFTLQFAKRLQVNLLVKPSEKIQVLKNLKRNYIVPILWLNETGTIGDEKANMFRSQVTGKINLLGLIEMILLSVGVVMFVAFMISYCACRSKTIK
modifications: 125I-labelled where used as probe
notes: Purified protein, a gift from Dr. N. Tandon; Used 125I-labelled in solution or coated on plates or dishes; also called 125I-CD36; radiolabelled human CD36

Key:
radiolabeled ICAM-1 = radiolabeled ICAM-1 (UniProt P05362 28-532, radiolabelled); assay: bacterial extracts blotted and probed with radiolabeled ICAM-1
[1] = biological target: T1, Sequestrin GST-R(0-IV) fusion protein (Plasmodium falciparum); assay: competition of 125I-CD36 binding to plate-coated GST-R(0-IV) by unlabeled CD36, gamma counting
T1 construct: The five domains R0-RIV are said to represent the entirety of amino acids H42-A458; also called domain combination R(0-IV); not shown: glutathione S-transferase fusion partner encoded by vector pGEX-3X (Pharmacia), followed by a Factor Xa site
T1 chain: B1 chain

radiolabeled ICAM-1, sequence (P05362 28-532 limits assumed): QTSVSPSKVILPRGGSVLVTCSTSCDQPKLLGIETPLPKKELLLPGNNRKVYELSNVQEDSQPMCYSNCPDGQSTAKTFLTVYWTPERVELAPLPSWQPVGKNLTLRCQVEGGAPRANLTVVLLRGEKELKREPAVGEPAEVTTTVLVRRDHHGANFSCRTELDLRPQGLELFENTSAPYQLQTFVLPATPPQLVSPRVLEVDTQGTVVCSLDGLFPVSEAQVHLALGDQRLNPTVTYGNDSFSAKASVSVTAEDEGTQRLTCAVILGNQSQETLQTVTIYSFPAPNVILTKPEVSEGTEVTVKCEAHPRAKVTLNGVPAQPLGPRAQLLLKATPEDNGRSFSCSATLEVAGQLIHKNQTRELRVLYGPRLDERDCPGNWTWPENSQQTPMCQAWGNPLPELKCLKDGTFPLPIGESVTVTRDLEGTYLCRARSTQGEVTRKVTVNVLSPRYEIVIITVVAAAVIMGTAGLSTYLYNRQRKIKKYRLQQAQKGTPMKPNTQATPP

Binder	binding result (radiolabeled ICAM-1)	Ki [1]
B1	no binding	
B2		~6 nM
